The text below walks through data of patent US20090054327A1.

For orientation: Kd means the free concentration of one partner at which half of the binding sites on the other are occupied at equilibrium, for simple one-to-one binding. Read a high Kd as lower affinity.

For test [1], the target named is actin filaments. As to the kind of experiment: F-actin high-speed co-sedimentation, direct comparison with dystrophin.
Test [2] has as its target actin filaments. As to the kind of experiment: F-actin high-speed co-sedimentation.

Substance “full-length recombinant utrophin (from UniProt G3V7L1 1-3418)” returned an extent of lateral association with actin filaments (stoichiometry) (actin monomers per utrophin molecule) in the test with actin filaments [1] of 14.

In the test with actin filaments [2], “recombinant full-length mouse dystrophin (from UniProt P11531 1-3678)” displayed a Bmax (actin monomers per dystrophin molecule) of 24 and a Kd of 400 nM.
